B1: mRNA-splicing (parent)
chain: GAUCCAGAUCUAACUUGGGGUGGCUUUGUCUUCUUCUUUUGCCAAUUCCACUAAUUGUUUGGG

Variants of: B1
Assay: exon inclusion enrichment score (log2 ratio to wild type); higher = more inclusion; FAS exon 6 minigene, HEK293

Row | Variant | exon inclusion enrichment score
1 | GAUCCAGAUCUAACUUGGGGUGGCUUUGGCUUCUUCUUUUGCCAAUUCCACUAAUUGUUUGGG [U29G] | -3.82
2 | GAUCCAGAUCUAACUUGGGGUGGCUUUGCCUUCUUCUUUUGCCAAUUCCACUAAUUGUUUGGG [U29C] | 0.119
3 | GAUCCAGAUCUAACUUGGGGUGGCUUUGUCUUCUACUUUUGCCAAUUCCACUAAUUGUUUGGG [U35A] | -0.045
4 | GAUCCAGAUCUAACUUGGGGUGGCUUUGUCUUCUCCUUUUGCCAAUUCCACUAAUUGUUUGGG [U35C] | 0.127
5 | GAUCCAGAUCUAACUUGGGGUGGCUUUGUCUUCUGCUUUUGCCAAUUCCACUAAUUGUUUGGG [U35G] | 0.167
6 | GAUCCAGAUCUAACUUGGGGUGGCUUUGUCUUAUUCUUUUGCCAAUUCCACUAAUUGUUUGGG [C33A] | -3.75
7 | GAUCCAGAUCUAACUUGGGGUGGCUUUGUCUUGUUCUUUUGCCAAUUCCACUAAUUGUUUGGG [C33G] | -2.4
8 | GAUCCAGAUCUAACUUGGGGUGGCUUUGUCUUUUUCUUUUGCCAAUUCCACUAAUUGUUUGGG [C33U] | -4.54
9 | GAUCCAGAUCUAACUUGGGGUGGCUUUGUCUUCUUGUUUUGCCAAUUCCACUAAUUGUUUGGG [C36G] | -0.112
10 | GAUCCAGAUCUAACUUGGGGUGGCUUUGUCUUCUUAUUUUGCCAAUUCCACUAAUUGUUUGGG [C36A] | -0.688
11 | GAUCCAGAUCUAACUUGGGGUGGCUUUGUCUUCUUUUUUUGCCAAUUCCACUAAUUGUUUGGG [C36U] | -2.31
12 | GAUCCAGAUCUAACUUGGGGUGGCUUUGUCUUCUUCUUUGGCCAAUUCCACUAAUUGUUUGGG [U40G] | 0.275
13 | GAUCCAGAUCUAACUUGGGGUGGCUUUGUCUUCUUCUUUCGCCAAUUCCACUAAUUGUUUGGG [U40C] | 0.287
14 | GAUCCAGAUCUAACUUGGGGUGGCUUUGUCUUCUUCUUUAGCCAAUUCCACUAAUUGUUUGGG [U40A] | -2.39
15 | GAUCCAGAUCUAACUUGGGGUGGCUUUGUCUUCUUCUAUUGCCAAUUCCACUAAUUGUUUGGG [U38A] | -0.025
16 | GAUCCAGAUCUAACUUGGGGUGGCUUUGUCUUCUUCUGUUGCCAAUUCCACUAAUUGUUUGGG [U38G] | 0.274
17 | GAUCCAGAUCUAACUUGGGGUGGCUUUGUCUUCUUCUCUUGCCAAUUCCACUAAUUGUUUGGG [U38C] | 0.106
18 | GAUCCAGAUCUAACUUGGGGUGGCUUUGUCUUCUUCUUCUGCCAAUUCCACUAAUUGUUUGGG [U39C] | 0.236
19 | GAUCCAGAUCUAACUUGGGGUGGCUUUGUCUUCUUCUUAUGCCAAUUCCACUAAUUGUUUGGG [U39A] | 0.361
20 | GAUCCAGAUCUAACUUGGGGUGGCUUUGUCUUCUUCUUGUGCCAAUUCCACUAAUUGUUUGGG [U39G] | 0.267
21 | GAUCCAGAUCUAACUUGGGGUGGCUUUGUCCUCUUCUUUUGCCAAUUCCACUAAUUGUUUGGG [U31C] | -0.076
22 | GAUCCAGAUCUAACUUGGGGUGGCUUUGUCAUCUUCUUUUGCCAAUUCCACUAAUUGUUUGGG [U31A] | 0.242

Row | Variant | exon inclusion enrichment score
23 | GAUCCAGAUCUAACUUGGGGUGGCUUUGUCGUCUUCUUUUGCCAAUUCCACUAAUUGUUUGGG [U31G] | -1.2
24 | GAUCCAGAUCUAACUUGGGGUGGCUUUGUCUUCUUCUUUUUCCAAUUCCACUAAUUGUUUGGG [G41U] | -1.24
25 | GAUCCAGAUCUAACUUGGGGUGGCUUUGUCUUCUUCUUUUACCAAUUCCACUAAUUGUUUGGG [G41A] | -0.772
26 | GAUCCAGAUCUAACUUGGGGUGGCUUUGUCUUCUUCUUUUCCCAAUUCCACUAAUUGUUUGGG [G41C] | -1.66
27 | GAUCCAGAUCUAACUUGGGGUGGCUUUGUCUGCUUCUUUUGCCAAUUCCACUAAUUGUUUGGG [U32G] | 0.176
28 | GAUCCAGAUCUAACUUGGGGUGGCUUUGUCUACUUCUUUUGCCAAUUCCACUAAUUGUUUGGG [U32A] | -0.129
29 | GAUCCAGAUCUAACUUGGGGUGGCUUUGUCUCCUUCUUUUGCCAAUUCCACUAAUUGUUUGGG [U32C] | -0.05
30 | GAUCCAGAUCUAACUUGGGGUGGCUUUGUGUUCUUCUUUUGCCAAUUCCACUAAUUGUUUGGG [C30G] | -0.286
31 | GAUCCAGAUCUAACUUGGGGUGGCUUUGUAUUCUUCUUUUGCCAAUUCCACUAAUUGUUUGGG [C30A] | -0.973
32 | GAUCCAGAUCUAACUUGGGGUGGCUUUGUUUUCUUCUUUUGCCAAUUCCACUAAUUGUUUGGG [C30U] | -2.3
33 | GAUCCAGAUCUAACUUGGGGUGGCUUUGUCUUCUUCGUUUGCCAAUUCCACUAAUUGUUUGGG [U37G] | 0.33
34 | GAUCCAGAUCUAACUUGGGGUGGCUUUGUCUUCUUCAUUUGCCAAUUCCACUAAUUGUUUGGG [U37A] | 0.26
35 | GAUCCAGAUCUAACUUGGGGUGGCUUUGUCUUCUUCCUUUGCCAAUUCCACUAAUUGUUUGGG [U37C] | 0.225
36 | GAUCCAGAUCUAACUUGGGGUGGCUUUGUCUUCUUCUUUUGUCAAUUCCACUAAUUGUUUGGG [C42U] | -1.2
37 | GAUCCAGAUCUAACUUGGGGUGGCUUUGUCUUCUUCUUUUGGCAAUUCCACUAAUUGUUUGGG [C42G] | -0.175
38 | GAUCCAGAUCUAACUUGGGGUGGCUUUGUCUUCUUCUUUUGACAAUUCCACUAAUUGUUUGGG [C42A] | -0.179
39 | GAUCCAGAUCUAACUUGGGGUGGCUUUGUCUUCCUCUUUUGCCAAUUCCACUAAUUGUUUGGG [U34C] | -0.17
40 | GAUCCAGAUCUAACUUGGGGUGGCUUUGUCUUCGUCUUUUGCCAAUUCCACUAAUUGUUUGGG [U34G] | 0.283
41 | GAUCCAGAUCUAACUUGGGGUGGCUUUGUCUUCAUCUUUUGCCAAUUCCACUAAUUGUUUGGG [U34A] | -0.179
42 | GAUCCAGAUCUAACUUGGGGUGGCUUUGUCUUCUUCUUUUGCAAAUUCCACUAAUUGUUUGGG [C43A] | -0.47
43 | GAUCCAGAUCUAACUUGGGGUGGCUUUGUCUUCUUCUUUUGCGAAUUCCACUAAUUGUUUGGG [C43G] | 0.061

— the RNAGym collection of RNA variant scans (doi:10.1038/ncomms11558)
